Results reported in IntAct's records for PubMed 11739402.

How the values were obtained:
gors2_rat Gorasp2 = gors2_rat Gorasp2 (UniProt Q9R064)
gors1_rat Gorasp1 = gors1_rat Gorasp1 (UniProt O35254)
Sequence of gors1_rat Gorasp1 (O35254 whole entry): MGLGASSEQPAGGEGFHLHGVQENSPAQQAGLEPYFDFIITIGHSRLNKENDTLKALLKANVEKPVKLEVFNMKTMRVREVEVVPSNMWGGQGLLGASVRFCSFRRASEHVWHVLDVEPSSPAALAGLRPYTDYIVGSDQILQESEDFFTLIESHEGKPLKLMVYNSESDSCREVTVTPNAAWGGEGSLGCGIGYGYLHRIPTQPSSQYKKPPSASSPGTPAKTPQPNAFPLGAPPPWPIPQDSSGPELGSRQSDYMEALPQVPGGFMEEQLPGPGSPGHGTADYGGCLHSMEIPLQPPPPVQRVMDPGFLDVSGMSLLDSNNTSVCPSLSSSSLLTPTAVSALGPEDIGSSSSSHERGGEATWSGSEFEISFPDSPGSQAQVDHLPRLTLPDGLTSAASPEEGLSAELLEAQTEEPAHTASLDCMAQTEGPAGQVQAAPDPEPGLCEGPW

Sequence of Transmembrane emp24 domain-containing protein 2 (Rattus norvegicus (Rat)), Q63524 V200A;V201A (Q63524 whole entry V200A/V201A, the tested form may be a part): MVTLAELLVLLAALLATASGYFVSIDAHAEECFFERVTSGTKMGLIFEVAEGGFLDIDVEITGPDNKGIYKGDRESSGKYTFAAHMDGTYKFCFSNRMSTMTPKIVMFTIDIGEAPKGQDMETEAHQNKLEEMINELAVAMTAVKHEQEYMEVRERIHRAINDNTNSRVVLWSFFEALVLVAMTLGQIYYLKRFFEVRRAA

Transmembrane emp24 domain-containing protein 2 (Rattus norvegicus (Rat)), Q63524 V200A;V201A
effect of a mutation on the interaction (gors2_rat Gorasp2): decreasing interaction
effect of a mutation on the interaction (gors1_rat Gorasp1): decreasing interaction
